Results from publication PMC2908255.

Target: Erk2 (UniProt P63086)
Assay: ITC

Kd: 549 nM | dH: -10.8 kcal/mol | stoichiometry N: 0.95
Substance: HePTP 15-339 (includes the KIM) (domain or fragment)
